4 molecules from paper PMC8599580, “Focused Proteomics Analysis of Habu Snake (Protobothrops flavoviridis) Venom Using Antivenom-Based Affinity Chromatography Reveals Novel Myonecrosis-Enhancing Activity of Thrombin-Like Serine Proteases” (Frontiers in Pharmacology, 2021) can be followed below.

One may read the koff as the rate constant with which the complex falls apart. The low end stands for a long-lived complex, the high end for a short-lived complex. As usually defined, the kon is the second-order rate constant of association. High values mean faster complex formation, low ones slower complex formation. A word on the Kd: it is the equilibrium constant for the complex coming apart. A high value points to weaker binding.

T1: [Asp49] PLA2 (Protobothrops flavoviridis, UniProt P06859 17-138)
T1 construct: hemolytic [Asp49] phospholipase A2 of Protobothrops flavoviridis; source: prepared from habu (Protobothrops flavoviridis) crude venom
T1 sequence (looked up): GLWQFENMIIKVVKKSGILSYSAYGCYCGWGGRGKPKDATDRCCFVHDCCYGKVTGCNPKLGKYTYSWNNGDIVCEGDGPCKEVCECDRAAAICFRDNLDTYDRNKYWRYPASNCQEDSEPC

B1: [Lys49]PLA2 (BPII) (natural protein)
chain: SLVQLWKMIFQETGKEAAKNYGLYGCNCGVGRRGKPKDATDSCCYVHKCCYKKVTGCNPKMDSYSYSWKNKAIVCGEKNPPCLKQVCECDKAVAICLRENLGTYNKKYTIYPKPFCKKADTC
notes: [Lys49] phospholipase A2 BPII of Protobothrops flavoviridis; also called myonecrotic [Lys49]; PLA2; source: prepared from habu (Protobothrops flavoviridis) crude venom
B2: [Lys49] PLA2 (BPII) (natural protein)
chain: B1 chain
notes: Basic protein II (BPII), [Lys49] phospholipase A2 myotoxin of Protobothrops flavoviridis venom; also called [Lys49]PLA2 myotoxin; myonecrotic [Lys49]; PLA2
B3: TLf1 (flavoxobin) (enzyme, Protobothrops flavoviridis)
chain: VIGGDECNINEHPFLVALYDAWSGRFLCGGTLINPEWVLTAAHCDSKNFKMKLGAHSQKVLNEDEQIRNPKEKFICPNKKNTEVLDKDIMLIKLDSPVSYSEHIAPLSLPSSPPSVGSVCRIMGWGSITPVEETFPDVPHCANINLLDDVECKPGYPELLPEYRTLCAGVLQGGIDTCGFDSGTPLICNGQFQGIVYIGSHPCGQSRKPGIYTKVFDYNAWIQSIIAGNTAATCLP
notes: flavoxobin, thrombin-like serine protease of Protobothrops flavoviridis; also called svSP01_TLf1; flavoxovin; source: purified from habu crude venom (CM-52 flow-through, Hi-trap benzamidine column)
B4: TLf2, thrombin-like serine protease TLSP2 (natural protein)
chain: IIGGDECNINEHRFLVALYTFRSRRLHCGGILINQEWVLSAARCNRKNIRIQLGMHSTNVINEDVQTRVPKEKFFCLSSKTHTRWNKDIMLIRLNSPVNNSTHIAPVSLPSNPPSLGSVCRVMGWGTISATKETHPDVPHCANINILDYSVCRAAYARLPATSRTLCAGILEGGKDSCKADSGGPLICNGEIQGIVSRGGHSCGQPRKPGLYTKVFDHLDWIKSIIAGNKDAICPP
notes: numbers count on: the mature protein; also called svSP02_TLf2; basic 30 kDa protein; source: purified from habu crude venom (CM-52 basic fraction #15, POROS HS column)

What all share (conditions): both partners purified
The target of the assay “TLf1 (flavoxobin)” is B3. The experiment in a line: SPR; BIAcore X; TLf1 or TLf2 immobilised on a CM5 chip by amine coupling; BPII or [Asp49] PLA2 injected as analytes (12.5-100 ug/ml) in HBS (10 mM HEPES pH 7.4, 0.15 M NaCl, 3 mM EDTA, 0.005% surfactant P-20) at 20 uL/min; nonlinear least-squares fitting with BIAevaluation. A general note: In SPR one partner is held on a chip, and binding of the other changes the refractive index at the surface.

In assay [1] the target is B4. The description is as above.
Another assay has as its target T2, flavoxobin (TLf1) (Protobothrops flavoviridis, UniProt P05620 25-260).
T2 construct: Flavoxobin (TLf1), thrombin-like serine protease of Protobothrops flavoviridis venom; also called flavoxovin; svSP01_TLf1
The experiment in a line: SPR; BIAcore X; TLf2 or TLf1 amine-coupled on CM5 chip; BPII or [Asp49] PLA2 injected as analytes (12.5-100 ug/ml) in HBS (10 mM HEPES pH 7.4, 0.15 M NaCl, 3 mM EDTA, 0.005% P-20), 20 uL/min; unmodified CM5 as control; regeneration 10 mM HCl.

Assay [2] has as its target T3, thrombin-like serine protease TLSP2 (TLf2) (Protobothrops flavoviridis, UniProt O13057 25-260).
T3 construct: also called svSP02_TLf2; basic 30 kDa protein; source: purified from habu (Protobothrops flavoviridis) crude venom (CM-52, POROS HS)
The assay is described as above.

The target of another assay is T1, [Asp49] PLA2. The experiment in a line: SPR; BIAcore X; TLf1 or TLf2 immobilised on a CM5 chip by amine coupling; BPII or [Asp49] PLA2 injected as analytes (12.5-100 ug/ml) in HBS (10 mM HEPES pH 7.4, 0.15 M NaCl, 3 mM EDTA, 0.005% surfactant P-20) at 20 uL/min; nonlinear least-squares fitting with BIAevaluation.

Turning to B1, in the assay with TLf1 (flavoxobin), the Ka amounted to 6.56e+06 M⁻¹, the koff is 0.00257 s⁻¹ and the kon is 16900 M⁻¹ s⁻¹. In assay [1], this molecule showed a Ka of 1.02e+07 M⁻¹, a dissociation rate constant (koff) of 0.00122 s⁻¹ and a kon of 12500 M⁻¹ s⁻¹.

Consider B2, for which the Kd worked out at 152 nM with flavoxobin (TLf1) and 97.9 nM in assay [2].

For the molecule B3, in assay [Asp49] PLA2, the Ka came to 371000 M⁻¹, the Kd amounted to 2690 nM, the dissociation rate constant (koff) was 0.0125 s⁻¹ and the association rate constant (kon) came out at 4660 M⁻¹ s⁻¹.

In assay [Asp49] PLA2, B4 registered a Ka of 7.9e+06 M⁻¹, a dissociation constant (Kd) of 127 nM, a koff of 0.000791 s⁻¹ and a kon of 6250 M⁻¹ s⁻¹.
